The values that follow are results of earlier work, collected in publication PMC3268021.

Read-outs that look alike come from different tables or passages of the source.

The target of series [1] is TXA2R (agonist-activated) (UniProt P21731).
The target in series [2] is TXA2R (ligand-free) (UniProt P21731).
In series [3] the target is phospholipase C (UniProt P19174).
Series [4] has the same target. This is another data set of the same source.
Series [5] has as its target Calmodulin (UniProt P0DP23).

Sequence of UniProt P19174 (P19174 2-1290): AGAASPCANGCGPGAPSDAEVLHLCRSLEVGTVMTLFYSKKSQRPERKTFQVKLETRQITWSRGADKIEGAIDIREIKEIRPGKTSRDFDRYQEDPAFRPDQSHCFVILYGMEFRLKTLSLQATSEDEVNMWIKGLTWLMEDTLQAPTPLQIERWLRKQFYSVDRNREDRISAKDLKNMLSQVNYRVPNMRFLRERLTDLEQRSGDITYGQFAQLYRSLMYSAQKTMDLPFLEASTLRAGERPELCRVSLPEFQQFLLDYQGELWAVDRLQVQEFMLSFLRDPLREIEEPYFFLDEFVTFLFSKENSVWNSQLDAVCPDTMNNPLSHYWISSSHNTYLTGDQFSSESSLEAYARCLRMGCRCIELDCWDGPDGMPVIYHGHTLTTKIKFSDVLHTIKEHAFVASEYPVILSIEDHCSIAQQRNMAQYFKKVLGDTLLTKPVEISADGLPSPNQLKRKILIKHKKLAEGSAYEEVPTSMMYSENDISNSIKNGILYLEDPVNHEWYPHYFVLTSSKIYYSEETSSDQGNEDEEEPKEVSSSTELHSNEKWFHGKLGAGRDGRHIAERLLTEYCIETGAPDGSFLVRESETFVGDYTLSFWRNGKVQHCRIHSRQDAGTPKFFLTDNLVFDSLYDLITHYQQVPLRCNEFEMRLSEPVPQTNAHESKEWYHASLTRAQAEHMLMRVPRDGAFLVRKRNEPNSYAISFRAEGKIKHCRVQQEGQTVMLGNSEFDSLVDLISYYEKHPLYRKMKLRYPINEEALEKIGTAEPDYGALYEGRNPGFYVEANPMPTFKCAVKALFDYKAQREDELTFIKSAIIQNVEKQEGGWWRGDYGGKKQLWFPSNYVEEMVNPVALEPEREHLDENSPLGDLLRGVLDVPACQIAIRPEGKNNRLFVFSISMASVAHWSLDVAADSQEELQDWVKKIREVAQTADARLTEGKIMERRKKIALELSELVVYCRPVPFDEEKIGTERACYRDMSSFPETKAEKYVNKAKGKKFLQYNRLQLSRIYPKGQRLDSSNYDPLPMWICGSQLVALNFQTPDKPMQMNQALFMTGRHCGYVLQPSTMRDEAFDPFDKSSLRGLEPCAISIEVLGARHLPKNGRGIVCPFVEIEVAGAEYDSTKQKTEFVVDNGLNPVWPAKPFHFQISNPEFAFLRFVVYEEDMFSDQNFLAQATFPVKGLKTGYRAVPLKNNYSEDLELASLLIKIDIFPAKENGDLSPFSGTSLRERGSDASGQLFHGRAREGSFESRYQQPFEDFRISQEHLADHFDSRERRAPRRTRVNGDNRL

With “Gαq C-terminal peptide C-terminal 15-mer peptide (from UniProt P50148)”, the Kd – broadly, the concentration at which binding is half-saturated – in series [1] was 240 µM; in series [2], 17 µM.
With “PCI-peptide 724-736 724-736 (from UniProt P19174)”, the Ki – broadly, a dissociation constant, usually derived from enzyme kinetics or from competition with a known ligand – in series [3] is 120 µM; in series [4], 3.5 µM.
Consider “pAC28 peptide of AC1 495-522 (from UniProt P19754)”, for which, in series [5], the Kd is 0.002 µM.
